Measurements reported in article PMC4072508, “Genome-Wide Prediction and Validation of Peptides That Bind Human Prosurvival Bcl-2 Proteins” (PLoS Computational Biology, 2014).
“And” between values parts separate entries of the source, which are not always exact repeats. Equal values may be shown once. Read-outs that look alike come from different tables or passages of the source.

Key:
Mcl-1 [1] = biological target: T1, Mcl-1 (Homo sapiens, UniProt Q07820); conditions: cited from earlier work
T1 construct: myc-Mcl-1 SPOT array & FP; made in house
T1 sequence (Q07820 with tags, fused parts or gaps): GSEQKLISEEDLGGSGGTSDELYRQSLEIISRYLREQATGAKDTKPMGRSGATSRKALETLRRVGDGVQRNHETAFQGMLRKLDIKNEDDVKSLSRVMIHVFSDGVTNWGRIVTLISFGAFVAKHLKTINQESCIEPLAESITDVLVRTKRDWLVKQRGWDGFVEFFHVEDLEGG
Excerpt: Negative control mutatio ...

Bcl-xL = biological target: T2, Bcl-xL (Homo sapiens, UniProt Q07817); assay: LUMIER full-length protein interaction; assay type: binding; conditions: LUMIER results for Bcl-xL, Z-score relative to Gaussian fit of the data; for z-score 2.1: experiment 2, duplicate 1
T2 construct: myc-Bcl-xL SPOT array & FP; made in house
T2 sequence (Q07817 with tags, fused parts or gaps): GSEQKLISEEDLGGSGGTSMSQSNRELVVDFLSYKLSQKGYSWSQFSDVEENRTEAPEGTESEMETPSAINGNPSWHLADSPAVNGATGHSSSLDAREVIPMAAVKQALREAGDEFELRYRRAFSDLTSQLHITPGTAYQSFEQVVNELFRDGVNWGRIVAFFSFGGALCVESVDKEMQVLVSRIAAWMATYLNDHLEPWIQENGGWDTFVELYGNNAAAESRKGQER
Procedure: (§1) The LUMIER assay was carried out as previously described with the following modifications. A stable cell line expressing receptor tagged on the N-terminus with Nanoluc luciferase was created (the prey). […] Each bait construct was transfected into the receptor-luciferase cells in a 96-well format and after 48 hours the cells were lysed and transferred to 384-well plates coated with anti-FLAG. After incubation and washing, luminescence was measured to quantify how much receptor-luciferase was captured by the bait protein. Anti-Flag ELISA signal was used to exclude bait proteins that were not expressed. The experiment was carried out two times, each in duplicate.

Mcl-1 [2] = biological target: T1, Mcl-1; assay: LUMIER full-length protein interaction; assay type: binding; conditions: LUMIER results for Mcl-1, Z-score relative to Gaussian fit of the data; for z-score 2.1: experiment 2, duplicate 1; for z-score 2.2: experiment 2, duplicate 2
Procedure: as §1

[3] = read-out: Binder class, Mcl-1, S1 Bim variants, specific binding measured using yeast display, ref Dutta et al. (2010)
[4] = read-out: Binder class, Mcl-1, natural BH3 peptides, interactions taken from literature

Substance | Kd (Mcl-1 [1]; [3]) | further results
PEIWIAQEIDRIGDEFNAYYARR | < 1 µM | –
PEIWFAQELRRDGDEFNAYYARR | > 10 µM | –
PEIWDAQELGRIGDEVNAYYARR | < 1 µM | –
PEIWFAQEIERIGDEVNAYYARR | < 1 µM | –
PEIWAAQEIRRIGDENNAYYARR | < 1 µM | –
PEIWIAQEVDRIGDEVNAYYARR | < 1 µM | –
PEIWFAQELRRDGDEYNAYYARR | > 10 µM | –
PEIWIAQELQRDGDEYNAYYARR | > 10 µM | –
EGEKEVEALKKSADWVSDWSSRP (VVEGEKEVEALKKSADWVSDWSSRPE) [BNIP3L] | – | Kd (Mcl-1 [1]; [4]): > 10 µM; Kd (Mcl-1 [1]; read-out: KD, Mcl-1, previously reported): > 2.5 µM
PEIWFAQELSRNGDEFNAYYARR | > 10 µM | –
PEIWAAQEIRRIGDESNAYYARR | < 1 µM | –
PEIWIAQEIGRTGDEVNAYYARR | < 1 µM | –
PEIWVAQEIERIGDEVNAYYARR | < 1 µM | –
PEIWIAQEIDRIGDETNAYYARR | < 1 µM | –
PEIWIAQEIGRIGNEVNAYYARR | < 1 µM | –
PEIWFAQEARRYGDEFNAYYARR | > 10 µM | –

Substance | Kd (Mcl-1 [1]; [3]) | further results
PEIWVAQEFGRAGDEFNAYYARR | > 10 µM | –
LEVECATQLRRFGDKLNFRQKLL (AELEVECATQLRRFGDKLNFRQKLLN) [Noxa] | – | Kd (Mcl-1 [1]; [4]): > 10 µM
PEIWIAQELRRAGDVLNAYYARR | – | Kd (Mcl-1 [1]; read-out: Binder class, Mcl-1, S2 Bim variants, ref Dutta et al. (2013)): < 1 µM
PEIWFAQEVGRIGDEINAYYARR | < 1 µM | –
MTQEVGQLLQDMGDDVYQQYRSL (GVMTQEVGQLLQDMGDDVYQQYRSLT) [Mule] | – | Kd (Mcl-1 [1]; [4]): > 10 µM
AEVQIARKLQCIADQFHRLHVQQ (HQAEVQIARKLQCIADQFHRLHVQQH) [Bmf] | – | Kd (Mcl-1 [1]; [4]): > 10 µM
PEIWIAQEFQRNGDEYNAYYARR | > 10 µM | –
ATP6AP2 (RDASKILVDALQKFADDMYSLYGGNA) | – | z-score 2.1 (Bcl-xL): 1.607 and 2.423; z-score 1.2 (Mcl-1 [2]; experiment 1, duplicate 2): 0.9409 and 0.8269; z-score 2.1 (Mcl-1 [2]): 2.599 and 2.298; z-score 2.2 (Mcl-1 [2]): 1.567 and 1.468
PEIWIAQEIGRIGDETNAYYARR | < 1 µM | –
WRAP53 (RKDAELLCWDLRQSGYPLWSLGREVT) | – | z-score 1.1 (Bcl-xL; experiment 1, duplicate 1): 0.8939; z-score 1.2 (Bcl-xL; experiment 1, duplicate 2): -0.01936; z-score 2.1 (Bcl-xL): 1.1339; z-score 2.2 (Bcl-xL; experiment 2, duplicate 2): 1.068; z-score 2.1 (Mcl-1 [2]): 1.332; z-score 2.2 (Mcl-1 [2]): 1.084
PEIWIAQEIDRIGNEINAYYARR | < 1 µM | –
PEIWFAQELKRFGDEANAYYARR | > 10 µM | –
PEIWVAQEFQRNGDEFNAYYARR | > 10 µM | –
PEIWFAQEVNRIGDEVNAYYARR | > 10 µM | –
PEIWVAQEFKRFGDEYNAYYARR | > 10 µM | –
